The chains are these.
B1: Recoverin mutant C39D (natural protein, bovine)
chain: GNSKSGALSKEILEELQLNTKFTEEELSSWYQSFLKEDPSGRITRQEFQTIYSKFFPEADPKAYAQHVFRSFDANSDGTLDFKEYVIALHMTSAGKTNQKLEWAFSLYDVDGNGTISKNEVLEIVTAIFKMISPEDTKHLPEDENTPEKRAEKIWGFFGKKDDDKLTEKEFIEGTLANKEILRLIQFEPQKVKEKLKEKKL
modifications: N-terminal myristoyl group (degree of myristoylation more than 95%)

Assay [1] concerns the target GRK1 (rhodopsin kinase) (bovine (endogenous in ROS)) (UniProt P28327).
The target in assay [2] is N-terminal domain of GRK1 (amino acids Met1-Gly183) fused with glutathione-S-transferase (UniProt P28327). Put plainly: SPR; GST-fused N-GRK1 or 1-25GRK1 immobilised by amine coupling on ProteOn GLH chip; recoverin forms 1-40 uM as analyte; 25°C; 10 mM HEPES, 150 mM NaCl, 0.05% TWEEN 20, pH 7.4, 1 mM CaCl2, 2 mM MgCl2; global fit to heterogeneous ligand model.
Assay [3] addresses N-terminal fragment of GRK1 (amino acids M1-S25) fused with glutathione-S-transferase (UniProt P28327). The description is as above.
A further assay addresses T1, GRK1 (rhodopsin kinase) (bovine (endogenous in ROS), UniProt P28327 1-561).
T1 sequence (looked up): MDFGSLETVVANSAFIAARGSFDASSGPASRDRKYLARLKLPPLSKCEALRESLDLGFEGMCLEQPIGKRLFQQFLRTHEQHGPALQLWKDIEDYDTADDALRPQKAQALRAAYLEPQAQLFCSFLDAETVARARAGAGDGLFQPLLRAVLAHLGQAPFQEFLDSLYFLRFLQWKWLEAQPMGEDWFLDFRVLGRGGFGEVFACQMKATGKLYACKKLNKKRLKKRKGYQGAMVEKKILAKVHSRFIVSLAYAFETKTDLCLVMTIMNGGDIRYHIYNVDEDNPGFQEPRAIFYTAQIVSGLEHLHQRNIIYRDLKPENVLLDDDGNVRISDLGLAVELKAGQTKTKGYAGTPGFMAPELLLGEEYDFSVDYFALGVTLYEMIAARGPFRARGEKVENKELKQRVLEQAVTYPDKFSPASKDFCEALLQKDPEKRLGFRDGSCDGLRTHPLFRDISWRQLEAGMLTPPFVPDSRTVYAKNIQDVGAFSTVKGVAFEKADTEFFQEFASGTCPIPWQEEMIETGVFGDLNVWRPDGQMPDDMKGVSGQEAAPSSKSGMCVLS
Put plainly: cell-based or functional assay.

For assay [4], the target named is T2, Recombinant myristoylated bovine recoverin (reduced monomer) (bovine, UniProt P21457 2-202, N-terminal myristoyl group (degree of myristoylation more than 95%)).
T2 construct: recoverin, bovine, recombinant wild type, myristoylated, C39 thiol reduced; Myristoylation implies that the initiator Met is removed and Gly2 carries the myristoyl group (surmised); also called RmRec; reduced monomer of recombinant wild type recoverin; source: recombinant, prepared according to previously published procedure (Zernii et al., 2011)
T2 sequence: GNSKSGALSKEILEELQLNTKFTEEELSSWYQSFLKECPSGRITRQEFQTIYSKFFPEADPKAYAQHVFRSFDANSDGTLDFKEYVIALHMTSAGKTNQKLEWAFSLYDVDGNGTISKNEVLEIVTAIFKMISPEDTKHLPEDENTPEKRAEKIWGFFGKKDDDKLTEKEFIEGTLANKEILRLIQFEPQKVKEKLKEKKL
Put plainly: SPR; GST-fused N-GRK1 or 1-25GRK1 immobilised by amine coupling on ProteOn GLH chip; recoverin forms 1-40 uM as analyte; 25°C; 10 mM HEPES, 150 mM NaCl, 0.05% TWEEN 20, pH 7.4, 1 mM CaCl2, 2 mM MgCl2; global fit to heterogeneous ligand model. Particulars: both partners purified.

The target of assay [5] is T3, Oxidized monomer of recombinant wild type recoverin (bovine, UniProt P21457 2-202, N-terminal myristoyl group; C39 thiol oxidized (sulfenic/sulfinic acid; Figure 9 legend: C39 converted into sulfinic acid)).
T3 construct: recoverin, bovine, recombinant wild type, myristoylated, monomer with oxidized C39; also called OmRec; thiol-oxidized monomer of recoverin; source: prepared from RmRec by incubation with 0.005% H2O2 at 30°C for 5 h, separated by gel-filtration (Superdex 75)
T3 sequence: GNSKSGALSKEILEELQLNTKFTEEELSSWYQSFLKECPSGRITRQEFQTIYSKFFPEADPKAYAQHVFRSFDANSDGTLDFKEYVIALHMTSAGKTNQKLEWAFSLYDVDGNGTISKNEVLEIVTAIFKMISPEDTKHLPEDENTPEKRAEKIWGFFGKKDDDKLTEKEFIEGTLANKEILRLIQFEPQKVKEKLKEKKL
The description is as above. To be noted: both partners purified.

The target of the assay “Recoverin mutant C39D” is B1. Described as above. To be noted: both partners purified.

In turn, “Disulfide dimer of recombinant wild type recoverin (from UniProt P21457 2-202) (complex)” showed an inhibition of GRK1 in rhodopsin phosphorylation assay, 20 uM dRec, 0.01 uM free Ca2+ in assay [1] of 40%. The inhibition of GRK1 in rhodopsin phosphorylation assay, 20 uM dRec, 200 uM free Ca2+ in assay [1] is 70%. Moreover, the Kd in assay [2] is 31.3 µM; in assay [3], 31.2 µM.

Consider B1, for which the “inhibition of GRK1 in rhodopsin phosphorylation assay, 40 uM C39D, 200 uM free Ca2+; decline of inhibitory efficiency against RmRec” value in the assay with GRK1 (rhodopsin kinase) is about 2 fold.

B2: N-terminal domain of GRK1 (amino acids Met1-Gly183) fused with glutathione-S-transferase (domain or fragment, UniProt P28327 1-183, looked up)
chain: MDFGSLETVVANSAFIAARGSFDASSGPASRDRKYLARLKLPPLSKCEALRESLDLGFEGMCLEQPIGKRLFQQFLRTHEQHGPALQLWKDIEDYDTADDALRPQKAQALRAAYLEPQAQLFCSFLDAETVARARAGAGDGLFQPLLRAVLAHLGQAPFQEFLDSLYFLRFLQWKWLEAQPMG
notes: GRK1 (rhodopsin kinase), N-terminal domain, amino acids Met1-Gly183; also called N-GRK1; N-terminal domain of rhodopsin kinase; source: obtained according to previously published procedure (Grigoriev et al., 2012)
Regarding B2, the Kd turned out to be 5.35 µM in assay [4], 31.3 µM in assay [5] and 50.2 µM with Recoverin mutant C39D.

B3: N-terminal fragment of GRK1 (amino acids M1-S25) fused with glutathione-S-transferase (domain or fragment, UniProt P28327 1-25, looked up)
chain: MDFGSLETVVANSAFIAARGSFDAS
notes: GRK1 (rhodopsin kinase), fragment M1-S25; also called 1-25GRK1; 1-25RK; source: obtained according to previously published procedure (Grigoriev et al., 2012)
For the molecule B3, the Kd in assay [4] amounted to 10.5 µM; in assay [5] it was 16 µM; in the assay with Recoverin mutant C39D, 31.3 µM.

Source of the values: article PMC6330308, “Light-Induced Thiol Oxidation of Recoverin Affects Rhodopsin Desensitization” (Frontiers in Molecular Neuroscience, 2018).
